# US20250236673A1 (Ablynx, published 2025)
# T1: recombinant human CEACAM5 (human, UniProt P06731 35-685, limits assumed)
# T1 construct: Immobilised by amine coupling on a CM5 chip
# T1 sequence (looked up): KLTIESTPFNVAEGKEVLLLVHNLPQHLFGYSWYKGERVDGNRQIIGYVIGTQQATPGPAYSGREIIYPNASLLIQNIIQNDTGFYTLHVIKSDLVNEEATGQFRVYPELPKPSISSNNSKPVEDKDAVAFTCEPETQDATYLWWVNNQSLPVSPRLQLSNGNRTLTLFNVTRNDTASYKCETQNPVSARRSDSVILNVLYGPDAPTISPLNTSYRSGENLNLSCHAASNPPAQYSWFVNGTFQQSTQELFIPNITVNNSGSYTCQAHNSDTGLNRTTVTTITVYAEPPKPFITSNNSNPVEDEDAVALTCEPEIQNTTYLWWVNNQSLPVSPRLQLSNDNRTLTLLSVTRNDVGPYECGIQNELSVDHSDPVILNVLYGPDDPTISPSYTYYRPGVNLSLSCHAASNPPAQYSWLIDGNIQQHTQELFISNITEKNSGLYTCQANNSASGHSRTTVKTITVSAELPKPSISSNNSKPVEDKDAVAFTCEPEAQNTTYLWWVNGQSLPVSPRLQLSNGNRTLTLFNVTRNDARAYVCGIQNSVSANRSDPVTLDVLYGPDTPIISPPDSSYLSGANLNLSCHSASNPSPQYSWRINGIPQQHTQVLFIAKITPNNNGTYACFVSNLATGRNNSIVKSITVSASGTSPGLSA
# Experiments:
# human serum albumin [1] = target: T2, human serum albumin (human, UniProt P02768 25-609); test: SPR on HSA (Example 2; method not restated, as Example 1)
# T2 construct: Immobilised by amine coupling on a C1 chip; also called HSA
# human serum albumin [2] = target: T2, human serum albumin; test: SPR Biacore 8K+, HSA amine-coupled on C1 chip, ISVD analyte, 1:1 fit
# [3] = target: T1, recombinant human CEACAM5; test: SPR on CEACAM5 (Example 2; method not restated, as Example 1)
# T2 sequence (P02768 25-609 limits assumed): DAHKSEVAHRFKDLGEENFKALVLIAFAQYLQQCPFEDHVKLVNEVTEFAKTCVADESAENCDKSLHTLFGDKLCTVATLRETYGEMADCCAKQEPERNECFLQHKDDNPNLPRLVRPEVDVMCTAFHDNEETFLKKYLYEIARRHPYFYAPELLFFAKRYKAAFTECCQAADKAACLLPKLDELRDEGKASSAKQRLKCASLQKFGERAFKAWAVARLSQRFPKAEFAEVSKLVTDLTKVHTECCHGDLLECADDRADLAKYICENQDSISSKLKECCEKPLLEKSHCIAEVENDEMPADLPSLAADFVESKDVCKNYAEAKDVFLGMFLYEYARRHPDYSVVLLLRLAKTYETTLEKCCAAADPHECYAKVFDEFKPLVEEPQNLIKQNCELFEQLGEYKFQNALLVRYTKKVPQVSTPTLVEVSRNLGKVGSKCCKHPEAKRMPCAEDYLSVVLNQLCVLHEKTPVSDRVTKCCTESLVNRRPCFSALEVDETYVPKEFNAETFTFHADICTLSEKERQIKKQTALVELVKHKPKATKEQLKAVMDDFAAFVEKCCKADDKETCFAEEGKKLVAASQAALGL
Binder,Kd (human serum albumin [1]) [nM],koff (human serum albumin [1]) [s⁻¹],kon (human serum albumin [1]) [M⁻¹ s⁻¹],Kd [3] [nM],koff [3] [s⁻¹],kon [3] [M⁻¹ s⁻¹],also measured
"T039400041 (VHH, Single lysine at 64; also called HIS6-ENLYFQS-5GS-HSA006A06(K43R, K75R, K83R)) VHH: EVQLVESGGGVVQPGGSLRLSCAASGFTFRSFGMSWVRQAPGRGPEWVSSISGSGSDTLYADSVKGRFTISRDNSRNTLYLQMNSLRPEDTALYYCTIGGSLSRSSQGTLVTVSS",8.01,0.00232,289000,,,,
"T039400042 (VHH, Single lysine at 73; also called HIS6-ENLYFQS-5GS-HSA006A06(K43R, K64R, N73K, K75R, K83R)) VHH: EVQLVESGGGVVQPGGSLRLSCAASGFTFRSFGMSWVRQAPGRGPEWVSSISGSGSDTLYADSVRGRFTISRDKSRNTLYLQMNSLRPEDTALYYCTIGGSLSRSSQGTLVTVSS",89.6,0.0178,198000,,,,
"T028501835 (VHH, K64A vs precursor T028501805; also called HSA006A06(K64A, K83R)) VHH: EVQLVESGGGVVQPGGSLRLSCAASGFTFRSFGMSWVRQAPGKGPEWVSSISGSGSDTLYADSVAGRFTISRDNSKNTLYLQMNSLRPEDTALYYCTIGGSLSRSSQGTLVTVSS",,,,,,,Kd (human serum albumin [2]): 2.06 nM; koff (human serum albumin [2]): 0.00108 s⁻¹; kon (human serum albumin [2]): 524000 M⁻¹ s⁻¹
"T039400044 (VHH, also called HIS6-ENLYFQS-5GS-HSA006A06(K43R, K64R, K75R, K83R, Q105K)) VHH: EVQLVESGGGVVQPGGSLRLSCAASGFTFRSFGMSWVRQAPGRGPEWVSSISGSGSDTLYADSVRGRFTISRDNSRNTLYLQMNSLRPEDTALYYCTIGGSLSRSSKGTLVTVSS",6.42,0.00229,357000,,,,
"T039400045 (VHH, Single lysine at 45; also called HIS6-ENLYFQS-5GS-HSA006A06(K43R, P45K,K64R, K75R, K83R)) VHH: EVQLVESGGGVVQPGGSLRLSCAASGFTFRSFGMSWVRQAPGRGKEWVSSISGSGSDTLYADSVRGRFTISRDNSRNTLYLQMNSLRPEDTALYYCTIGGSLSRSSQGTLVTVSS",8.59,0.00263,306000,,,,
"T039400040 (VHH, No lysine; also called HIS6-ENLYFQS-5GS-HSA006A06(K43R, K64R, K75R, K83R)) VHH: EVQLVESGGGVVQPGGSLRLSCAASGFTFRSFGMSWVRQAPGRGPEWVSSISGSGSDTLYADSVRGRFTISRDNSRNTLYLQMNSLRPEDTALYYCTIGGSLSRSSQGTLVTVSS",6.22,0.00231,371000,,,,
"T039400047 (VHH, Single lysine at 64; also called HIS6-ENLYFQS-5GS-A0315007E07(K43R, K75R)) VHH: EVQLVESGGGVVQPGGSLRLSCAASGLTFSTYTMGWFRQAPGREREFVAAIIWSGSNTYYADSVKGRFTISRDNARNTVYLQMNSLRPEDTALYYCAAQHFGPIGLTTRGYHYWGQGTLVTVSS",,,,0.915,0.000451,493000,

# Now from value to binder, other results behind:
Kd (human serum albumin [1]) [nM],koff (human serum albumin [1]) [s⁻¹],kon (human serum albumin [1]) [M⁻¹ s⁻¹],Kd [3] [nM],koff [3] [s⁻¹],kon [3] [M⁻¹ s⁻¹],Binder,also measured
,,,1.01,0.000526,522000,"T039400054 (VHH, Single lysine at the C-terminus; also called HIS6-ENLYFQS-5GS-A0315007E07(K43R, K64R, K75R,)-K) VHH: EVQLVESGGGVVQPGGSLRLSCAASGLTFSTYTMGWFRQAPGREREFVAAIIWSGSNTYYADSVRGRFTISRDNARNTVYLQMNSLRPEDTALYYCAAQHFGPIGLTTRGYHYWGQGTLVTVSS",
,,,0.952,0.000526,553000,"T039400050 (VHH, No lysine; also called HIS6-ENLYFQS-5GS-A0315007E07(K43R, K64R, K75R)) VHH: EVQLVESGGGVVQPGGSLRLSCAASGLTFSTYTMGWFRQAPGREREFVAAIIWSGSNTYYADSVRGRFTISRDNARNTVYLQMNSLRPEDTALYYCAAQHFGPIGLTTRGYHYWGQGTLVTVSS",
,,,0.914,0.000536,586000,"T039400049 (VHH, also called HIS6-ENLYFQS-5GS-A0315007E07(K43R, K64R, K75R, Q105K)) VHH: EVQLVESGGGVVQPGGSLRLSCAASGLTFSTYTMGWFRQAPGREREFVAAIIWSGSNTYYADSVRGRFTISRDNARNTVYLQMNSLRPEDTALYYCAAQHFGPIGLTTRGYHYWGKGTLVTVSS",
,,,0.943,0.000516,547000,"T039400053 (VHH, Single lysine at 43; 24 used; also called HIS6-ENLYFQS-5GS-A0315007E07(K64R, K75R,)) VHH: EVQLVESGGGVVQPGGSLRLSCAASGLTFSTYTMGWFRQAPGKEREFVAAIIWSGSNTYYADSVRGRFTISRDNARNTVYLQMNSLRPEDTALYYCAAQHFGPIGLTTRGYHYWGQGTLVTVSS",
,,,1.43,0.000633,441000,"T039400052 (VHH, Single lysine at 73; also called HIS6-ENLYFQS-5GS-A0315007E07K43R, K64R, N73K, K75R) VHH: EVQLVESGGGVVQPGGSLRLSCAASGLTFSTYTMGWFRQAPGREREFVAAIIWSGSNTYYADSVRGRFTISRDKARNTVYLQMNSLRPEDTALYYCAAQHFGPIGLTTRGYHYWGQGTLVTVSS",
,,,0.874,0.000504,577000,"T039400048 (VHH, Single lysine at 45; also called HIS6-ENLYFQS-5GS-A0315007E07(K43R, R45K, K64R, K75R)) VHH: EVQLVESGGGVVQPGGSLRLSCAASGLTFSTYTMGWFRQAPGREKEFVAAIIWSGSNTYYADSVRGRFTISRDNARNTVYLQMNSLRPEDTALYYCAAQHFGPIGLTTRGYHYWGQGTLVTVSS",
